{
  "source": "paper PMC7809502",
  "key": {"[1]": {"molecular_target": "genome-edited CXCL12-HiBiT (human (endogenous in HEK293)) (UniProt P48061)", "assay": "split reporter (BiFC, NanoBiT); NLuc complementation luminescence: supernatants from HEK293 cells expressing genome-edited CXCL12-HiBiT incubated with increasing concentrations of purified LgBiT; with surfen (10 uM)"}, "[2]": {"molecular_target": "genome-edited CXCL12-HiBiT (human (endogenous in HEK293)) (UniProt P48061)", "assay": "split reporter (BiFC, NanoBiT); NLuc complementation luminescence: supernatants from HEK293 cells expressing genome-edited CXCL12-HiBiT incubated with increasing concentrations of purified LgBiT; vehicle"}, "[3]": {"molecular_target": "genome-edited CXCL12-HiBiT (human (endogenous in HEK293)) (UniProt P48061)", "assay": "split reporter (BiFC, NanoBiT); NLuc complementation luminescence: live HEK293 cells expressing genome-edited CXCL12-HiBiT incubated with increasing concentrations of purified LgBiT; vehicle"}, "[4]": {"molecular_target": "purified HiBiT", "assay": "split reporter (BiFC, NanoBiT); NLuc complementation luminescence: purified HiBiT (1 nM) incubated with increasing concentrations of purified LgBiT; vehicle"}, "[5]": {"molecular_target": "genome-edited CXCL12-HiBiT (human (endogenous in HEK293)) (UniProt P48061)", "assay": "split reporter (BiFC, NanoBiT); NLuc complementation luminescence: supernatants from HEK293 cells expressing genome-edited CXCL12-HiBiT incubated with increasing concentrations of purified LgBiT; with heparan sulfate (30 ug/mL)"}, "[6]": {"molecular_target": "genome-edited CXCL12-HiBiT (human (endogenous in HEK293)) (UniProt P48061)", "assay": "split reporter (BiFC, NanoBiT); NLuc complementation luminescence: live HEK293 cells expressing genome-edited CXCL12-HiBiT incubated with increasing concentrations of purified LgBiT; with surfen (10 uM)"}},
  "data": [
    {"substance": "LgBiT (18 kDa NLuc fragment)", "values": [
      {"measurement": "Kd", "setting": "[1]", "result": 7.46, "unit": "nM"},
      {"measurement": "Kd", "setting": "[2]", "result": 17.5, "unit": "nM"},
      {"measurement": "Kd", "setting": "[3]", "result": 11.6, "unit": "nM"},
      {"measurement": "Kd", "setting": "[4]", "result": 7.15, "unit": "nM"},
      {"measurement": "Kd", "setting": "[5]", "result": 16.1, "unit": "nM"},
      {"measurement": "Kd", "setting": "[6]", "result": 5.93, "unit": "nM"}
    ]}
  ]
}
